Reference: the supplement of paper PMC9112550, “Optimization of the antimicrobial peptide Bac7 by deep mutational scanning” (BMC Biology, 2022)

What follows are sequences tested on Escherichia coli TOP10 (assay: shrunken log2 fold change of peptide-encoding DNA abundance (4.5 h post-induction vs induction); higher = less antimicrobial activity (less host growth inhibition)). Details: time post-induction: 4.5 h; library: site-saturation at positions 5, 18, 19, 20.
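Also: peptides expressed intracellularly from a pBAD plasmid library in pooled LB shake-flask culture, induced with 0.3% L-arabinose, DNA abundance read by NGS, three biological replicates, DESeq2 with apeglm shrinkage.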

| Sequence | shrunken log2 fold change |
| --- | --- |
| RRIRMRPPRLPRPRPRPCSMPRP | -0.0341 |
| RRIRRRPPRLPRPRPRPNCNPRP | -0.0828 |
| RRIRYRPPRLPRPRPRPCEEPRP | -0.156 |
| RRIRWRPPRLPRPRPRPDPSPRP | -0.0349 |
| RRIRGRPPRLPRPRPRPMIIPRP | 0.0975 |
| RRIRGRPPRLPRPRPRPDALPRP | 0.889 |
| RRIRSRPPRLPRPRPRPVFPPRP | -0.118 |
| RRIRSRPPRLPRPRPRPIEVPRP | 0.0392 |
| RRIRHRPPRLPRPRPRPYPAPRP | -0.425 |
| RRIRVRPPRLPRPRPRPCGCPRP | 0.0165 |
| RRIRMRPPRLPRPRPRPNGKPRP | 0.321 |
| RRIRYRPPRLPRPRPRPTTDPRP | -0.775 |
| RRIRYRPPRLPRPRPRPFYCPRP | -1.27 |
| RRIRHRPPRLPRPRPRPNALPRP | 0.0224 |
| RRIRHRPPRLPRPRPRPVTPPRP | -0.00938 |
| RRIRSRPPRLPRPRPRPEWYPRP | 0.341 |
| RRIRHRPPRLPRPRPRPGMRPRP | 0.163 |
| RRIRHRPPRLPRPRPRPIPEPRP | -0.16 |
| RRIRNRPPRLPRPRPRPRLTPRP | 0.252 |
| RRIRFRPPRLPRPRPRPQGIPRP | 0.0254 |
| RRIRCRPPRLPRPRPRPRFEPRP | 0.115 |
| RRIRCRPPRLPRPRPRPCLEPRP | -0.0191 |
| RRIRRRPPRLPRPRPRPHISPRP | -0.0794 |
| RRIRYRPPRLPRPRPRPIQLPRP | -0.0605 |
| RRIRMRPPRLPRPRPRPNNDPRP | -0.0943 |

| Sequence | shrunken log2 fold change |
| --- | --- |
| RRIRHRPPRLPRPRPRPISAPRP | -0.0622 |
| RRIRVRPPRLPRPRPRPTKGPRP | 0.118 |
| RRIRLRPPRLPRPRPRPLVFPRP | -0.186 |
| RRIRYRPPRLPRPRPRPEACPRP | -0.0328 |
| RRIRVRPPRLPRPRPRPFTLPRP | -0.104 |
| RRIRTRPPRLPRPRPRPSNMPRP | -0.851 |
| RRIRHRPPRLPRPRPRPHIEPRP | 0.032 |
| RRIRQRPPRLPRPRPRPMCGPRP | 0.31 |
| RRIRIRPPRLPRPRPRPFDQPRP | -0.385 |
| RRIRPRPPRLPRPRPRPNIFPRP | -0.189 |
| RRIRWRPPRLPRPRPRPMNRPRP | -0.00448 |
| RRIRRRPPRLPRPRPRPKTTPRP | 0.0923 |
| RRIRHRPPRLPRPRPRPIPGPRP | -0.158 |
| RRIRRRPPRLPRPRPRPDFSPRP | -0.18 |
| RRIRNRPPRLPRPRPRPYQTPRP | -0.00141 |
| RRIRDRPPRLPRPRPRPRSAPRP | 0.321 |
| RRIRTRPPRLPRPRPRPKWMPRP | 0.00414 |
| RRIRIRPPRLPRPRPRPEKNPRP | -0.232 |
| RRIRQRPPRLPRPRPRPLNIPRP | -0.315 |
| RRIRRRPPRLPRPRPRPHIAPRP | -0.0643 |
| RRIRKRPPRLPRPRPRPLYLPRP | -0.17 |
| RRIRQRPPRLPRPRPRPHIQPRP | -0.444 |
| RRIRVRPPRLPRPRPRPEPVPRP | 0.365 |
| RRIRHRPPRLPRPRPRPIEMPRP | -0.00281 |
| RRIRERPPRLPRPRPRPDTYPRP | 0.0491 |

| Sequence | shrunken log2 fold change |
| --- | --- |
| RRIRKRPPRLPRPRPRPIWLPRP | 0.00836 |
| RRIRERPPRLPRPRPRPAHLPRP | 0.301 |
| RRIRNRPPRLPRPRPRPRDYPRP | -0.0159 |
| RRIRARPPRLPRPRPRPAHDPRP | 0.184 |
| RRIRIRPPRLPRPRPRPGLSPRP | -0.0218 |
| RRIRVRPPRLPRPRPRPSVPPRP | -0.165 |
| RRIRCRPPRLPRPRPRPVLVPRP | -0.0168 |
| RRIRPRPPRLPRPRPRPFSNPRP | -0.218 |
| RRIRWRPPRLPRPRPRPGCVPRP | 0.607 |
| RRIRLRPPRLPRPRPRPLPSPRP | 3.98 |
| RRIRCRPPRLPRPRPRPIGPPRP | 0.112 |
| RRIRERPPRLPRPRPRPTAVPRP | -0.113 |
| RRIRPRPPRLPRPRPRPWAIPRP | -0.0391 |
| RRIRVRPPRLPRPRPRPRRQPRP | 0.0745 |
| RRIRGRPPRLPRPRPRPYITPRP | -0.302 |
| RRIRDRPPRLPRPRPRPDGAPRP | 0.657 |
| RRIRARPPRLPRPRPRPRTNPRP | 0.329 |
| RRIRMRPPRLPRPRPRPLWWPRP | 0.795 |
| RRIRQRPPRLPRPRPRPDVNPRP | -0.142 |
| RRIRVRPPRLPRPRPRPSRDPRP | -0.0563 |
| RRIRCRPPRLPRPRPRPYKGPRP | -0.153 |
| RRIRGRPPRLPRPRPRPNFMPRP | 0.0686 |
| RRIRERPPRLPRPRPRPHPIPRP | -0.0808 |
| RRIRKRPPRLPRPRPRPLIWPRP | 0.761 |
| RRIRMRPPRLPRPRPRPFSSPRP | 0.0321 |

| Sequence | shrunken log2 fold change |
| --- | --- |
| RRIRDRPPRLPRPRPRPPLFPRP | 0.5 |
| RRIRHRPPRLPRPRPRPFLAPRP | -0.336 |
| RRIRERPPRLPRPRPRPKDPPRP | 0.0145 |
| RRIRIRPPRLPRPRPRPRWEPRP | 0.0225 |
| RRIRFRPPRLPRPRPRPPDQPRP | 0.63 |
| RRIRPRPPRLPRPRPRPYCDPRP | -0.907 |
| RRIRWRPPRLPRPRPRPNNYPRP | -0.571 |
| RRIRSRPPRLPRPRPRPCYYPRP | -0.571 |
| RRIRFRPPRLPRPRPRPFLHPRP | -0.329 |
| RRIRTRPPRLPRPRPRPEPSPRP | 0.534 |
| RRIRMRPPRLPRPRPRPGCSPRP | 0.815 |
| RRIRHRPPRLPRPRPRPHILPRP | -0.084 |
| RRIRCRPPRLPRPRPRPFWRPRP | 0.0785 |
| RRIRCRPPRLPRPRPRPMFLPRP | -0.847 |
| RRIRGRPPRLPRPRPRPCDRPRP | 0.00287 |
| RRIRYRPPRLPRPRPRPMCNPRP | -1.82 |
| RRIRYRPPRLPRPRPRPECIPRP | -0.00318 |
| RRIRKRPPRLPRPRPRPIIFPRP | -0.147 |
| RRIRIRPPRLPRPRPRPTIRPRP | -0.995 |
| RRIRWRPPRLPRPRPRPKAQPRP | 0.0185 |
| RRIRMRPPRLPRPRPRPGEDPRP | 0.118 |
| RRIRYRPPRLPRPRPRPEYVPRP | -0.0327 |
| RRIRWRPPRLPRPRPRPCYTPRP | -0.382 |
| RRIRSRPPRLPRPRPRPYSLPRP | -0.35 |
| RRIRNRPPRLPRPRPRPQFRPRP | 0.00019 |

| Sequence | shrunken log2 fold change |
| --- | --- |
| RRIRHRPPRLPRPRPRPTDLPRP | -0.154 |
| RRIRTRPPRLPRPRPRPTPPPRP | 0.589 |
| RRIRRRPPRLPRPRPRPTSRPRP | 0.312 |
| RRIRYRPPRLPRPRPRPYMEPRP | -0.0102 |
| RRIRLRPPRLPRPRPRPENPPRP | -0.173 |
| RRIRHRPPRLPRPRPRPRKAPRP | -0.0445 |
| RRIRPRPPRLPRPRPRPTKGPRP | 0.0911 |
| RRIRIRPPRLPRPRPRPHGCPRP | -0.282 |
| RRIRDRPPRLPRPRPRPARWPRP | 0.824 |
| RRIRIRPPRLPRPRPRPPLWPRP | 0.504 |
| RRIRCRPPRLPRPRPRPFCAPRP | -0.00432 |
| RRIRYRPPRLPRPRPRPSFIPRP | -0.851 |
| RRIRQRPPRLPRPRPRPDVGPRP | -0.0428 |
| RRIRERPPRLPRPRPRPKVWPRP | 0.332 |
| RRIRNRPPRLPRPRPRPTQYPRP | 0.095 |
| RRIRRRPPRLPRPRPRPCTAPRP | 0.866 |
| RRIRHRPPRLPRPRPRPESQPRP | -0.173 |
| RRIRRRPPRLPRPRPRPSWVPRP | -0.223 |
| RRIRPRPPRLPRPRPRPTKWPRP | 0.187 |
| RRIRHRPPRLPRPRPRPIRWPRP | 0.171 |
| RRIRSRPPRLPRPRPRPVKCPRP | -0.0337 |
| RRIRIRPPRLPRPRPRPLSMPRP | -0.395 |
| RRIRLRPPRLPRPRPRPRHPPRP | 0.163 |
| RRIRLRPPRLPRPRPRPFWIPRP | -0.283 |
| RRIRQRPPRLPRPRPRPPESPRP | 0.528 |

| Sequence | shrunken log2 fold change |
| --- | --- |
| RRIRHRPPRLPRPRPRPIHDPRP | -1.81 |
| RRIRERPPRLPRPRPRPMVYPRP | -0.119 |
| RRIRSRPPRLPRPRPRPQKHPRP | -0.106 |
| RRIRKRPPRLPRPRPRPMVGPRP | 0.0659 |
| RRIRHRPPRLPRPRPRPEAMPRP | -0.00857 |
| RRIRDRPPRLPRPRPRPWEPPRP | -1.35 |
| RRIRPRPPRLPRPRPRPMLVPRP | 0.0962 |
| RRIRGRPPRLPRPRPRPAHDPRP | 0.643 |
| RRIRCRPPRLPRPRPRPNEGPRP | -0.1 |
| RRIRHRPPRLPRPRPRPIKSPRP | -0.0206 |
| RRIRMRPPRLPRPRPRPGECPRP | -0.0159 |
| RRIRDRPPRLPRPRPRPMVIPRP | 0.0392 |
| RRIRRRPPRLPRPRPRPHQVPRP | 0.1 |
| RRIRWRPPRLPRPRPRPGLEPRP | 1.46 |
| RRIRFRPPRLPRPRPRPAMYPRP | -0.246 |
| RRIRERPPRLPRPRPRPLCIPRP | -0.895 |
| RRIRNRPPRLPRPRPRPLWAPRP | -0.0559 |
| RRIRSRPPRLPRPRPRPAEDPRP | -0.0146 |
| RRIRNRPPRLPRPRPRPPQGPRP | 0.192 |
| RRIRHRPPRLPRPRPRPPPVPRP | 0.658 |
| RRIRRRPPRLPRPRPRPACAPRP | 0.727 |
| RRIRQRPPRLPRPRPRPFFGPRP | 6.44e-05 |
| RRIRCRPPRLPRPRPRPCRWPRP | -0.103 |
| RRIRHRPPRLPRPRPRPTSMPRP | -0.0792 |
| RRIRPRPPRLPRPRPRPVMDPRP | 0.0311 |
